Measured values reported in US20220153847A1 (Chugai, published 2022).

Experiments:
[1] = biological target: HLA-DQ2.5/33mer gliadin peptide on IHW9088 cells (human); assay: cell-based or functional assay
[2] = biological target: T1, HLA-DQ2.5/avenin 2 peptide complex on Ba/F3 cells (human); assay: FACS, Ba/F3 cells; IC17=0%, DQN0139bb//IC17=100%;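 also: flow cytometry binding of anti-HLA-DQ antibodies at 5 µg/mL, incubated 30 min at room temperature with Ba/F3 lines presenting HLA-DQ/peptide complexes; antibody tested at 5 microgram/mL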
T1 construct: whole, on cells; also called Ba/F3-HLA-DQ2.5/avenin 2

[3] = biological target: T2, HLA-DQ2.5/alpha 1 gliadin peptide complex on Ba/F3 cells (human); assay: FACS, Ba/F3 cells; IC17=0%, DQN0139bb//IC17=100%;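 also: flow cytometry binding of anti-HLA-DQ antibodies at 5 µg/mL, incubated 30 min at room temperature with Ba/F3 lines presenting HLA-DQ/peptide complexes; antibody tested at 5 microgram/mL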
T2 construct: whole, on cells; also called Ba/F3-HLA-DQ2.5/alpha 1 gliadin; HLA-DQ2.5/a1 gliadin

[4] = biological target: T3, HLA-DQ2.5/gamma 1 gliadin peptide complex on Ba/F3 cells (human); assay: FACS, Ba/F3 cells; IC17=0%, DQN0139bb//IC17=100%;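 also: flow cytometry binding of anti-HLA-DQ antibodies at 5 µg/mL, incubated 30 min at room temperature with Ba/F3 lines presenting HLA-DQ/peptide complexes; antibody tested at 5 microgram/mL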
T3 construct: whole, on cells; also called Ba/F3-HLA-DQ2.5/gamma 1 gliadin; HLA-DQ2.5/g1 gliadin

[5] = biological target: T4, HLA-DQ2.5/alpha 3 gliadin peptide complex on Ba/F3 cells (human); assay: FACS, Ba/F3 cells; IC17=0%, DQN0139bb//IC17=100%;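 also: flow cytometry binding of anti-HLA-DQ antibodies at 5 µg/mL, incubated 30 min at room temperature with Ba/F3 lines presenting HLA-DQ/peptide complexes; antibody tested at 5 microgram/mL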
T4 construct: whole, on cells; also called Ba/F3-HLA-DQ2.5/alpha 3 gliadin; HLA-DQ2.5/a3 gliadin

[6] = biological target: T5, HLA-DQ2.5/BC hordein peptide complex on Ba/F3 cells (human); assay: FACS, Ba/F3 cells; IC17=0%, DQN0139bb//IC17=100%
T5 construct: whole, on cells; also called Ba/F3-HLA-DQ2.5/BC hordein

[7] = biological target: T6, HLA-DQ2.5/CLIP peptide complex on Ba/F3 cells (human); assay: FACS, Ba/F3 cells; IC17=0%, DQN0139bb//IC17=100%
T6 construct: whole, on cells; also called Ba/F3-HLA-DQ2.5/CLIP
T6 sequence (P04233 96-124, chain 2 of 2, other chains not shown): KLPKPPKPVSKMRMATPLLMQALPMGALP

[8] = biological target: T7, HLA-DQ2.5/33mer gliadin peptide complex on Ba/F3 cells (human); assay: FACS, Ba/F3 cells; IC17=0%, DQN0139bb//IC17=100%
T7 construct: whole, on cells; also called Ba/F3-HLA-DQ2.5/33mer gliadin

[9] = biological target: T8, HLA-DQ2.5/omega 2 gliadin peptide complex on Ba/F3 cells (human); assay: FACS, Ba/F3 cells; IC17=0%, DQN0139bb//IC17=100%
T8 construct: whole, on cells; also called Ba/F3-HLA-DQ2.5/omega 2 gliadin; HLA-DQ2.5/w2 gliadin

[10] = biological target: T9, HLA-DQ2.5/secalin 2 peptide complex on Ba/F3 cells (human); assay: FACS, Ba/F3 cells; IC17=0%, DQN0139bb//IC17=100%
T9 construct: whole, on cells; also called Ba/F3-HLA-DQ2.5/secalin 2

[11] = biological target: T10, HLA-DQ2.5/Thyroperoxidase peptide complex on Ba/F3 cells (human); assay: FACS, Ba/F3 cells; IC17=0%, DQN0139bb//IC17=100%
T10 construct: whole, on cells; also called Ba/F3-HLA-DQ2.5/TPO; HLA-DQ2.5/TPO

[12] = biological target: T11, HLA-DQ2.5/omega 1 gliadin peptide complex on Ba/F3 cells (human); assay: FACS, Ba/F3 cells; IC17=0%, DQN0139bb//IC17=100%
T11 construct: whole, on cells; also called Ba/F3-HLA-DQ2.5/omega 1 gliadin; HLA-DQ2.5/w1 gliadin

[13] = biological target: T12, HLA-DQ2.5/hordein 2 peptide complex on Ba/F3 cells (human); assay: FACS, Ba/F3 cells; IC17=0%, DQN0139bb//IC17=100%
T12 construct: whole, on cells; also called Ba/F3-HLA-DQ2.5/hordein 2

[14] = biological target: T13, HLA-DQ2.5/hordein 1 peptide complex on Ba/F3 cells (human); assay: FACS, Ba/F3 cells; IC17=0%, DQN0139bb//IC17=100%
T13 construct: whole, on cells; also called Ba/F3-HLA-DQ2.5/hordein 1

[15] = biological target: T14, HLA-DQ2.5/alpha 2 gliadin peptide complex on Ba/F3 cells (human); assay: FACS, Ba/F3 cells; IC17=0%, DQN0139bb//IC17=100%
T14 construct: whole, on cells; also called Ba/F3-HLA-DQ2.5/alpha 2 gliadin; HLA-DQ2.5/a2 gliadin

[16] = biological target: T15, HLA-DQ2.5/secalin 1 peptide complex on Ba/F3 cells (human); assay: FACS, Ba/F3 cells; IC17=0%, DQN0139bb//IC17=100%
T15 construct: whole, on cells; also called Ba/F3-HLA-DQ2.5/secalin 1

[17] = biological target: T16, HLA-DQ2.5/gamma 2 gliadin peptide complex on Ba/F3 cells (human); assay: FACS, Ba/F3 cells; IC17=0%, DQN0139bb//IC17=100%
T16 construct: whole, on cells; also called Ba/F3-HLA-DQ2.5/gamma 2 gliadin; HLA-DQ2.5/g2 gliadin

HLA-DQ8 on Ba/F3 cells = biological target: T17, HLA-DQ8 on Ba/F3 cells (human, UniProt P01909 24-216; P01920 33-230, limits assumed); assay: FACS, Ba/F3 cells; IC17=0%, DQN0139bb//IC17=100%
T17 construct: whole, on cells; also called Ba/F3-HLA-DQ8
T17 MHC II alpha: not shown
T17 MHC II beta: not shown

[18] = biological target: T18, HLA-DQ2.5/26mer gliadin peptide complex on Ba/F3 cells (human); assay: FACS, Ba/F3 cells; IC17=0%, DQN0139bb//IC17=100%
T18 construct: whole, on cells; also called Ba/F3-HLA-DQ2.5/26mer gliadin

[19] = biological target: T19, HLA-DQ2.5/14mer 1 peptide complex on Ba/F3 cells (human); assay: FACS, Ba/F3 cells; IC17=0%, DQN0139bb//IC17=100%
T19 construct: whole, on cells; also called Ba/F3-HLA-DQ2.5/14mer 1

[20] = biological target: T20, HLA-DQ2.5/alpha 1b gliadin peptide complex on Ba/F3 cells (human); assay: FACS, Ba/F3 cells; IC17=0%, DQN0139bb//IC17=100%
T20 construct: whole, on cells; also called Ba/F3-HLA-DQ2.5/alpha 1b gliadin; HLA-DQ2.5/a1b gliadin

[21] = biological target: T21, HLA-DQ2.5/avenin 1 peptide complex on Ba/F3 cells (human); assay: FACS, Ba/F3 cells; IC17=0%, DQN0139bb//IC17=100%
T21 construct: whole, on cells; also called Ba/F3-HLA-DQ2.5/avenin 1

HLA-DQ7.5 on Ba/F3 cells = biological target: T22, HLA-DQ7.5 on Ba/F3 cells (human, UniProt P01909 24-216; P01920 33-230, limits assumed); assay: FACS, Ba/F3 cells; IC17=0%, DQN0139bb//IC17=100%
T22 construct: whole, on cells; also called Ba/F3-HLA-DQ7.5
T22 sequence (P01920 33-230 limits assumed, chain 2 of 4, other chains not shown): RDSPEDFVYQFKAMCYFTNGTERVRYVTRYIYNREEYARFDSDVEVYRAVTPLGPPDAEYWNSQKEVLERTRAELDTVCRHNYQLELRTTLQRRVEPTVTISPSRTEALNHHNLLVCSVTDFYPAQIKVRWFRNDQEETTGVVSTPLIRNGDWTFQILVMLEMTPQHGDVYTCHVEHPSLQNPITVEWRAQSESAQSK

[22] = biological target: T23, HLA-DQ2.5/avenin 3 peptide complex on Ba/F3 cells (human); assay: FACS, Ba/F3 cells; IC17=0%, DQN0139bb//IC17=100%
T23 construct: whole, on cells; also called Ba/F3-HLA-DQ2.5/avenin 3

[23] = biological target: T24, HLA-DQ2.5 on HLA-DQ2.5-positive PBMC B cells (human, UniProt P01909 24-254; P01920 33-261); assay: FACS, PBMC B cells; IC17=0%, DQN0139bb//IC17=100%
T24 construct: whole, on cells; also called HLA-DQ2.5+ PBMC B cell
T24 MHC II alpha: not shown
T24 MHC II beta: not shown

B1: DQN0344xx//IC17 (bispecific antibody, human IgG1, kappa)
heavy 1: QSLEESGGGLVKPGGTLTLTCTASGFSFSSSYWMCWVRQAPGKGLEWVACVYGGSDTTYYASWTKGRFTISKGSSTTVALQVTSLTAADTATYFCARDPLNYYYYGELNLWGPGTLVTVSSASTKGPSVFPLAPSSKSTSGGTAALGCLVKDYFPEPVTVSWNSGALTSGVHTFPAVLQSSGLYSLSSVVTVPSSSLGTQTYICNVNHKPSNTKVDKRVEPKSCDKTHTCPPCPAPELRRGPSVFLFPPKPKDTLMISRTPEVTCVVVDVSHEDPEVKFNWYVDGVEVHNAKTKPREEQYNSTYRVVSVLTVLHQDWLNGKEYKCKVSNKALPAPIEKTISKAKGQPREPQVYTLPPSREEMTKNQVSLTCLVKGFYPSDIAVEWESNGQPENNYKTTPPYLDSDGSFFLYSKLTVDKSRWQQGNVFSCSVMHEALHNHYTQESLSLSP
light 1: AVVLTQTASPVSAAVGGTVTIRCQATENIYSGLAWYQQKPGQPPKVLIYYVSTLASGVPSRFKGSGSGTEYTLTISGVQCDDAATYYCQTYHDISNVTFGGGTKVEIKRTVAAPSVFIFPPSDEQLKSGTASVVCLLNNFYPREAKVQWKVDNALQSGNSQESVTEQDSKDCTYSLSSTLTLSKADYEKHKVYACEVTHQGLSSPVTKSFNRGEC
heavy 2: QVQLQQSGPQLVRPGASVKISCKASGYSFTSYWMHWVNQRPGQGLEWIGMIDPSYSETRLNQKFKDKATLTVDKSSSTAYMQLSSPTSEDSAVYYCALYGNYFDYWGQGTTLTVSSASTKGPSVFPLAPSSKSTSGGTAALGCLVKDYFPEPVTVSWNSGALTSGVHTFPAVLQSSGLYSLSSVVTVPSSSLGTQTYICNVNHKPSNTKVDKRVEPKSCDKTHTCPPCPAPELRRGPSVFLFPPKPKDTLMISRTPEVTCVVVDVSHEDPEVKFNWYVDGVEVHNAKTKPREEQYNSTYRVVSVLTVLHQDWLNGKEYKCKVSNKALPAPIEKTISKAKGQPREPQVYTLPPSRKEMTKNQVSLTCLVKGFYPSDIAVEWESNGQPENNYKTTPPYLDSDGSFFLYSKLTVDKSRWQQGNVFSCSVMHEALHNHYTQKSLSLSP
light 2: DIQMTQSSSSFSVSLGDRVTITCKASEDIYNRLAWYQQKPGNAPRLLISGATSLETGVPSRFSGSGSGKDYTLSITSLQTEDVATYYCQQYWSTPYTFGGGTKLEVKRTVAAPSVFIFPPSDEQLKSGTASVVCLLNNFYPREAKVQWKVDNALQSGNSQESVTEQDSKDSTYSLSSTLTLSKADYEKHKVYACEVTHQGLSSPVTKSFNRGEC
With B1 the “IC50 (read off the curve)” value [1] was ~0.2 microgram/mL, the “% MFI” value [2] was 16.8% and the “% MFI” value [3] was 60.1%. For the same binder, the “% MFI” value [4] was 0.2%, the “% MFI” value [5] was 14.6% and the “% MFI” value [6] was 0%. The “% MFI” value [7] was 0%, the “% MFI” value [8] was 99.1% and the “% MFI” value [9] was 0.2%. For the same binder, the “% MFI” value [10] was 26.5%, the “% MFI” value [11] was 0% and the “% MFI” value [12] was 37.5%. For the same binder, the “% MFI” value [13] was 0%, the “% MFI” value [14] was 11.9% and the “% MFI” value [15] was 90.4%. For the same binder, the “% MFI” value [16] was 31.6%, the “% MFI” value [17] was 0.2% and the “% MFI” value (HLA-DQ8 on Ba/F3 cells) was 0%. The “% MFI” value [18] was 0.2%, the “% MFI” value [19] was 0% and the “% MFI” value [20] was 72.2%. The “% MFI” value [21] was 20.7%, the “% MFI” value (HLA-DQ7.5 on Ba/F3 cells) was 0% and the “% MFI” value [22] was 17.8%. The “% MFI” value [23] was 0%.
